Experimental data: PMC4150762, “The DEAD-box helicase Ded1 from yeast is an mRNP cap-associated protein that shuttles between the cytoplasm and nucleus” (Nucleic Acids Research, 2014)

T1: GST-NAB2-HIS6 (S. cerevisiae, UniProt P32505 1-525)
T1 construct: source: E. coli, purified on nickel-agarose
T1 sequence (looked up): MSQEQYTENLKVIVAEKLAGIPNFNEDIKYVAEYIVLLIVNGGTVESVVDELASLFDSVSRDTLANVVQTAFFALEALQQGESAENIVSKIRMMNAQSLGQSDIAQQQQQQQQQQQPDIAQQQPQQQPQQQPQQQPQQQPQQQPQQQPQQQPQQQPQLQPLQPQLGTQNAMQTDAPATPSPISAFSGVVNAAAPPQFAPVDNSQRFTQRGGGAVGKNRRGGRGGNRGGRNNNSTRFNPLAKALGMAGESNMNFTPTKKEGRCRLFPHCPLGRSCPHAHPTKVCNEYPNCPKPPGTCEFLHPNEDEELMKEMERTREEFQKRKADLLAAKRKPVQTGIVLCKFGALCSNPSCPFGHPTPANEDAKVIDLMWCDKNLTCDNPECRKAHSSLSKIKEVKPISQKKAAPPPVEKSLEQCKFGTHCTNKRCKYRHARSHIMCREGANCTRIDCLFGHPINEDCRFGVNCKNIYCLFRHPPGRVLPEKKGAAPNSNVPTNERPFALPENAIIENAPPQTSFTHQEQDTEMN

B1: eIF4G-His6 fragment 387–952 (domain or fragment, S. cerevisiae, UniProt P39935 387-952, looked up)
chain: AGTKIGLEAEIETTTDETDDGTNTVSHILNVLKDATPIEDVFSFNYPEGIEGPDIKYKKEHVKYTYGPTFLLQFKDKLNVKADAEWVQSTASKIVIPPGMGRGNRSRDSGRFGNNSSRGHDFRNTSVRNMDDRANSRTSSKRRSKRMNDDRRSNRSYTSRRDRERGSYRNEEKREDDKPKEEVAPLVPSANRWVPKFKSKKTEKKLAPDGKTELLDKDEVERKMKSLLNKLTLEMFDAISSEILAIANISVWETNGETLKAVIEQIFLKACDEPHWSSMYAQLCGKVVKELNPDITDETNEGKTGPKLVLHYLVARCHAEFDKGWTDKLPTNEDGTPLEPEMMSEEYYAAASAKRRGLGLVRFIGFLYRLNLLTGKMMFECFRRLMKDLTDSPSEETLESVVELLNTVGEQFETDSFRTGQATLEGSQLLDSLFGILDNIIQTAKISSRIKFKLIDIKELRHDKNWNSDKKDNGPKTIQQIHEEEERQRQLKNNSRSNSRRTNNSSNRHSFRRDAPPASKDSFITTRTYSQRNSQRAPPPKEEPAAPTSTATNMFSALMGESDDEE
notes: Not among the constructs of the methods
B2: His6-Cbp20 (natural protein, S. cerevisiae, UniProt Q08920 1-208, looked up)
chain: MSLEEFDEVKYDHSTKRLDTPSRYLLRKARRNPNGLQELRESMKSSTIYVGNLSFYTSEEQIYELFSKCGTIKRIIMGLDRFKFTPCGFCFIIYSCPDEALNALKYLSDTKLDEKTITIDLDPGFEDGRQFGRGKSGGQVSDELRFDFDASRGGFAIPFAERVGVPHSRFDNSSSQSNTNNYIPPPDAMGTFRPGFDEEREDDNYVPQ
notes: Cbp20 of S. cerevisiae subcloned from pRSETC20 into the NdeI-BamHI sites of pET19b; Printed name His6-Cbp20; also called Cpb20; source: E. coli (pET19b), purified on nickel-agarose

Experiments:
[1] = biological target: T2, Ded1-His6 (S. cerevisiae, UniProt P06634 1-604); assay: pull-down; Ded1 bound to protein A Sepharose beads crosslinked to IgG against Ded1, incubated with single purified proteins, washed, eluted; Coomassie-stained SDS PAGE, western blot for Pab1 and Cbp80; same results with or without RNase I or AMP-PNP; conditions: both partners purified
T2 construct: Ded1 of S. cerevisiae, recombinant, expressed from pET22b; Printed name Ded1-His6; source: E. coli (pET22b), purified on nickel-agarose
T2 sequence (P06634 whole entry): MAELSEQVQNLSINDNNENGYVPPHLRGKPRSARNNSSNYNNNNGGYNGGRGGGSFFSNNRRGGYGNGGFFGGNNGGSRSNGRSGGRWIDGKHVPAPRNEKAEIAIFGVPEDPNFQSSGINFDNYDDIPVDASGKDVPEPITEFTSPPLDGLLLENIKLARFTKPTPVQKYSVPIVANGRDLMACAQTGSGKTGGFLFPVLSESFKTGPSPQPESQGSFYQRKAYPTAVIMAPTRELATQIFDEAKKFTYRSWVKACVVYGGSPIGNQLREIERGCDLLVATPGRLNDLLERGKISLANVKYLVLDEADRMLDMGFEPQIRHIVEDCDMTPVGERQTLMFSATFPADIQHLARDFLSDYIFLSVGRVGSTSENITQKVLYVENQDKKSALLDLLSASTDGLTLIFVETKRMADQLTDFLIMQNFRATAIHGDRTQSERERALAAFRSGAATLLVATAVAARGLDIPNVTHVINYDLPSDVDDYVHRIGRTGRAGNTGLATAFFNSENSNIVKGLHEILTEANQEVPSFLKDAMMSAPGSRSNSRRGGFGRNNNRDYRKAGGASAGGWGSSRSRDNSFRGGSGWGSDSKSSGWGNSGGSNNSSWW

[2] = biological target: T2, Ded1-His6; assay: cell-based or functional assay
[3] = biological target: T1, GST-NAB2-HIS6; assay: pull-down; 7-methyl-GTP Sepharose beads loaded with 5 μg purified eIF4E or Cbp20, 5 μg of the purified proteins added with 50 U RNase I, 90 min on ice, TpB buffer (20 mM HEPES pH 7.9, 100 mM KCl, 2 mM MgCl2, 2 mM DTT), eluted with 1 mM 7-methyl-GTP; Coomassie-stained SDS PAGE; conditions: both partners purified

Binder	binding result [1]	RNA-dependent ATPase activity, % Ded1 [2] [%]	binding result [3]
B1	binds	–	–
B2	–	97	binds
